Assay: yeast display, Sf9 membrane polyspecificity reagent, FACS + sequencing; frameworks hold sequencing errors
Method in brief: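 A synthetic nanobody library was expressed on Saccharomyces cerevisiae BJ5465 by galactose induction for 36–48 hours. The library was stained for 1 hour at 4 °C with 10% biotinylated, detergent-solubilized Sf9 membrane reagent and enriched with streptavidin microbeads before FACS. Low and high (top ~1%) gates were set on anti-HA fluorescence for expression and streptavidin fluorescence for reagent binding, and each polyreactivity label reflects the gate of origin.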
With “QVQLVESVGGLVQAGGSLRLSSAASGFTFKYYAMVWYRQAPGKERELVAAISWSGTRTYYADSVKGRVTISRDNAKYTVYLQMNSLKPEDTAVYYCDADFNGRYDYWGQGTQVTVSS” the “polyreactivity (PSR sort gate)” value was “high polyreactivity”.
With “QVQLVESVGGLVQAGGSLRLSSAASGFTIVGNTMGWSRQAPGKERELVASINTNGGSTYYADSVKGRFTISRDNAKNTVYLQINSLKPEDTAVYYCNARSWYPYDYWGQGTQVTVSS” the “polyreactivity (PSR sort gate)” value was “low polyreactivity”.
In the case of “QVQLVESVGGLVQAGGSLRLSSAASGRTFRYYTMVWYTQAPGKEREFVAAISSTGGTYYADSVKGRFTISRDNAKNTVYLQMNSLKPEDTAVYYCAATFIQVVVNVQMYDYDYWGQGTQVTVSS”, the “polyreactivity (PSR sort gate)” value is reported as “low polyreactivity”.
In the case of “QVQLVESVGGLVQAGGSLRLTCAASGSIFKYYDMGWYRQAPGTERELVAAISSNGGRTYYADSVKGRFTISRDNAKNTDYLQMNSLKPEDTAVYYCARRFRRTGESEYDYWGQGTQVNVSS”, the “polyreactivity (PSR sort gate)” value is reported as “high polyreactivity”.
With “QVQLVESVGGLVQAGGSLSLSCAASGIIFVPYAMVWYRQAPGKERELVAAISSGGSTDYADSVKGRFTISRDNAKNTVYLQMNSLKPEDTAVYYCNKYYRGIFKAHRDYWGQGTQVTLSS” the “polyreactivity (PSR sort gate)” value was “low polyreactivity”.
In the case of “QVQLVESVGGLVQAGGSLSLSCAASGSTLSDNAMGWYRQAPGKERELVAAIRRVGSTNYADSVKGRFTISRDNAKNTVYLQMNSLKPEDTAVYYCAVRHVWPWQGYDYWGQGTQVTVSS”, the “polyreactivity (PSR sort gate)” value is reported as “low polyreactivity”.
With “QVQLVESVGGLVQAGGTLRLSCAASGSTFNINAMGWYRQAPGKERELVAAISWSGDITYYADSVKGRFTISRDNAKNTVYLQMNSLKPEDTAVYYCNTDDPVNYWYAEYDYWGQGTQVTVSS” the “polyreactivity (PSR sort gate)” value was “low polyreactivity”.
In the case of “QVQLVESVGGLVQAGGTLRLSCSASGSTFNVYAMGWYIQATGKERELVAAITRRGGSTYYADSVKGRFTISRDNAKNTVYLQMNSLKPEDTADYYFAARRRLDYYYYNYWGQGTQETVSS”, the “polyreactivity (PSR sort gate)” value is reported as “high polyreactivity”.
With “QVQLVESVGGLVQAGGTLRLTCAASGSNFKAYAMRWYRQATGKERELVARIRYRGGSTYNADSVKGRFTISRDNAKNTVFLQMNSLKPEETAVYYCAARLSPYHTDRGDYLGQGTQVTVSS” the “polyreactivity (PSR sort gate)” value was “high polyreactivity”.
In the case of “QVQLVESVGGLVQAGGTLSLSCAASGFTFRNYAMGWYRQAPRKEREFVAAISRRGGSTYYADSVKGRITISRDNAKNTVYLQINSLKPEDSAVYYCATEPGKQNTYRMDYCGQGTQVTVSS”, the “polyreactivity (PSR sort gate)” value is reported as “high polyreactivity”.
With “QVQLVESVGGLVQAGVSLRLSGAASGNTFVPYAMGWSRQAPGKESELVAAISLRGGSTYYADSVKGRFTISRDNAKNTVYLQMNSLKPEDTAVYYCAARTFYRPGLAGGYWGQGTQVTVAS” the “polyreactivity (PSR sort gate)” value was “high polyreactivity”.
In the case of “QVQLVESVGGLVQARGSLRLSCAASASIFPSYAMGWYIQAPGKERELVAVISWRGGSTYYADSVKGRFTISRDNAKNTVYLQMNRLKPEDTAVYYCAARSWDPKLSTYPFHFNYWGQGTQVTVSS”, the “polyreactivity (PSR sort gate)” value is reported as “high polyreactivity”.
With “QVQLVESVGGLVQSGGSLRLSCAASGFIFVVYAMGSYRQAPGKERELVATISSGGGTYYADSVKGRFTISRDNAKNTVYLQMNSLKPEDTAVYYCAARRRRLYHFGGNNYWGQGTQVTVSS” the “polyreactivity (PSR sort gate)” value was “high polyreactivity”.
With “QVQLVESVGGVVQAGGSLGLSCAASGRPFGRNVMGWYRQAPGKERELVAAISRSGGSTYYADSVKGRFTISRDNAKNTVYFQMNSLKPEDTAVYYCAAYSVGDYYWGQGTQVTVSS” the “polyreactivity (PSR sort gate)” value was “high polyreactivity”.
With “QVQLVESVGRLVQAGGSLRLSCAASGSIIRSYTKGWYRQAPGKEWELVAASSGRAGSTYYADSVKGRFTISRDIAKNTVYLQMPGLKPEDTAVYYCAVILGGRAQSYYWGHGTQVTVSS” the “polyreactivity (PSR sort gate)” value was “high polyreactivity”.
For “QVQLVESVGRLVQAGGSLRLSCGASGRIFKWYAMGWFRQARGNERELVAAITSRGSTYYADSVKGRFTISRDNAKNTVYLQMNSLKPEDTAVYYCNRYVVHRRDDYWGQGTQVTVSS”, the “polyreactivity (PSR sort gate)” value was “high polyreactivity”.
In the case of “QVQLVESVGVLVQAGGSLHLSCAASGSTFRYNAIGWYRQAPGKEREVVAAISKRGGSTYYADSVKGRFTISRDNAKNTVYLQMNSLKPEDTAVYYCAASYPSWSTRGESDYWGQGTQVTVSS”, the “polyreactivity (PSR sort gate)” value is reported as “high polyreactivity”.
In the case of “QVQLVESVLGLVQAGGSLRLICDASGSIFGYNVIGWYRQAPGKERELVAAITGRGDSTYYADSVKGRFTISRDNAKNTVYLQMNSLKPEDTAVYYCAAYPNQSEYYYWGQGTQVTVSS”, the “polyreactivity (PSR sort gate)” value is reported as “low polyreactivity”.
With “QVQLVESVRGLVQAGGSLRLSCAASGSIFDYNAMGWYREAPGKEREFVASITYSGGSTNYADSVKGRFTISRDNAKNTVYLQMNSLKPEDTAVYYCSKTIGIVWIYYPGARYDYWGQGTQVTVSS” the “polyreactivity (PSR sort gate)” value was “low polyreactivity”.
For “QVQLVESVRGLVQAGGTLRLSCAPSGGIFWVYAMGWYRQAPGKERELVAAISNSDTSTSYADSVKGRFTISRVNAKNTVYLQMNSLKPEDTAVYSCNADSPSLSGDYWGQGTQVTVSS”, the “polyreactivity (PSR sort gate)” value was “low polyreactivity”.
In the case of “QVQLVESVVCLVQAGGSLRLSCAASGSIFRSYAMGWYRQAPGKERELVASISRRGGSTYYADSVKGRFTISRDNAKNTVYLQMNSLKPEDTAVYYCAAVGYNSRVSTTPSEMYYWGQGTQVTVSS”, the “polyreactivity (PSR sort gate)” value is reported as “high polyreactivity”.
For “QVQLVESVVGLVQAGGSLRLSSAASGGTFSENAMGWYRQAPGKERELVAAITWSVGNTYADSVKGLFTISRDNAKNTVYLQMNSLKPEDTAVYYCAKDFSVPAYDYWGLGTQVTVSS”, the “polyreactivity (PSR sort gate)” value was “low polyreactivity”.
For “QVQLVESVVGLVQAGRSLRLSCAASGYTFWQYAMGWYRQAPGKERELVATITSRGGSTYYADSVKGRFTISRDTAKNSVYFQMNSLKPEDTAVYYCAARVYYPSTSNAAYGYCGQGTQVTVSS”, the “polyreactivity (PSR sort gate)” value was “high polyreactivity”.
With “QVQLVESVVGLVQARVSLRLSCASSGFIFRFYTMGWYIQPPGKESEFVPAISWSGTSTYYADSVKGRFTISRDNAKNTVYLQMNSLKPEDTAVYYCAAGYKWKGTVWIMDYWGQGTQVTVSS” the “polyreactivity (PSR sort gate)” value was “high polyreactivity”.
In the case of “QVQLVESWGALVQAGGSLRLSCAASRRTFALNAMGWYRQAPGKETELVAAITSSGGSSYYADSVKGRFTISRDIAKNSVYLLMNSLNPVDTAVYYCAADRHYGTEYAYDYWGEGTQVTVSS”, the “polyreactivity (PSR sort gate)” value is reported as “low polyreactivity”.
In the case of “QVQLVESWGGLVQAAASLRLICDASGRTIRWSAMGWYRPAPGKERELVATITTSGTPSYADSVKGRFTISRDNAKNTVYLQMNSLTPEDTAVYYCAADTYPWGGSSSYDWGQGTQVTVSS”, the “polyreactivity (PSR sort gate)” value is reported as “high polyreactivity”.
In the case of “QVQLVESWGGLVQAGCRLRLSCAASGRTFLTYVMGWYRQAPGKERELVAAITRGGRTNYADSVKGRFTISRDNAKNTVFLQMNSLKPEDTAVYYCARDDTPRYDYWGQGTQVTVSS”, the “polyreactivity (PSR sort gate)” value is reported as “low polyreactivity”.
In the case of “QVQLVESWGGLVQAGGSLPLSCAASGFTFVSYAMGWSRQAPGKERELVAAISKRGGSTSYADSVKGRFTISRDNAKNTVYLQMNSLKPEDTAVYYCYKRSYAWSPHVDYWGQGTQVTVSS”, the “polyreactivity (PSR sort gate)” value is reported as “high polyreactivity”.
For “QVQLVESWGGLVQAGGSLRISCAASGRISYGYAMGWYRQAPGKERELVAAISRSGGTTYYADSVKGRFTISRDNAKNTVYLQMNSLNPEDTAVYYCAAGDAYYTEALPFGDYDYWGQGTQVTVSS”, the “polyreactivity (PSR sort gate)” value was “low polyreactivity”.
For “QVQLVESWGGLVQAGGSLRLSCAASGFIFTLYAMGWYRQATGKEREFVAAISWSDGSTTYADSVKGRFTISRDNAKTTVYLQMNSLKPEDTAVYYCAAVTSSYIRGLVYHFYYWGQGTQVTVSS”, the “polyreactivity (PSR sort gate)” value was “low polyreactivity”.
For “QVQLVESWGGLVQAGGSLRLSCAASGFIFYRYAMGWYRQAPGKERELVAVISVSGGSTYADSVKGRFTISRDNAKNTVYLQMNSLKPEDTAVYYCAARRYSYYRVHGTRHDYWGQGTQVTVSS”, the “polyreactivity (PSR sort gate)” value was “high polyreactivity”.
In the case of “QVQLVESWGGLVQAGGSLRLSCAASGFTFAYNTMGWYRQAPGTEREWVAAISSSGGSTYYADSVKGRFTISRDNAKNTVYLQMNSLKPEDTAVYDCAAPFWRSFWASDYCGQGTQVTVSS”, the “polyreactivity (PSR sort gate)” value is reported as “high polyreactivity”.
With “QVQLVESWGGLVQAGGSLRLSCAASGFTFDNYPMGWYRQAPGKERELVAAIINSGGSTYYADSVKGRFTISRDNAKNTVYLQMNSLKPEDTAVYYCAARILPFRQWYRTYEYWGQGTQVTVSS” the “polyreactivity (PSR sort gate)” value was “high polyreactivity”.
With “QVQLVESWGGLVQAGGSLRLSCAASGFTFNANAMGWYRQAPGKERELVAAISLSGGRTYYADSVKGRFTISRDNEKNTVYLQMNSLKPVDTAVYYCAASPDGSFRRFSRVVSGDYWGQGTQVTVSS” the “polyreactivity (PSR sort gate)” value was “high polyreactivity”.
In the case of “QVQLVESWGGLVQAGGSLRLSCAASGITFSNYAMGWYRQAPGKERELVAAISKRGGSTYYADSVKGRFTISRDTAKYTVYLQMNSLKPEDTAVYYCAAAGVRVYVRSVLDYWGQGTQVTVSS”, the “polyreactivity (PSR sort gate)” value is reported as “high polyreactivity”.
For “QVQLVESWGGLVQAGGSLRLSCAASGLIFKVYAMGWYRQAPGKERELVAAITYSGGSTDYADSVKGRFTISRDNAKNTVYLQMNSLKPEDTAVYYCNVEKVGHVNSYGYDYWGQGTQVTVSS”, the “polyreactivity (PSR sort gate)” value was “low polyreactivity”.
With “QVQLVESWGGLVQAGGSLRLSCAASGLPSKLMLMVWYRQAPGKERELVAAISSSGGRTYYADSVKGRFTISRDNAKITVYLQMNSLKPEDTAVYYCAAYFPRTLFEFGYWGQGNQVTVSS” the “polyreactivity (PSR sort gate)” value was “high polyreactivity”.
In the case of “QVQLVESWGGLVQAGGSLRLSCAASGLTFNYYDMGWYRQAPGKERELVAAISRSGTNTSYADSVKGRFTISRDNAKNTVYLQMNSLKPEDTAVYYCNAAGVYLAAGPYTANFNYNYWGQGTQVTVSS”, the “polyreactivity (PSR sort gate)” value is reported as “low polyreactivity”.
In the case of “QVQLVESWGGLVQAGGSLRLSCAASGRIFDPYAMGWYRQAPGKERELVATITLRGGITYYADSVKGRFTISRDNAKNTVYLEMNSLKPEDTAVYYCAKKVRYYVRWEYDYWGQGTQVTVSS”, the “polyreactivity (PSR sort gate)” value is reported as “low polyreactivity”.
In the case of “QVQLVESWGGLVQAGGSLRLSCAASGRIFGRYAMGWYRQAPGKERELVAAIRSTGSTNYADSVKGRFTISRDNAKNTVYLQMNSLKPEDTAVYYCAAYRRRTYAVNKEGGYWGQGTQVTVSS”, the “polyreactivity (PSR sort gate)” value is reported as “high polyreactivity”.
For “QVQLVESWGGLVQAGGSLRLSCAASGSIFSVYAMGWYRQAPGKERELVAAITSGGGTKYADSLKGRFTISRDNAKNTVYLQMNSLKPEDTAVYYCAAESFSDGSPYNYWGQGTQVTVSS”, the “polyreactivity (PSR sort gate)” value was “low polyreactivity”.
For “QVQLVESWGGLVQAGGSLRLSCAASGSTFAGYAMGWYRQAPGKERELVAAIDWGGDSTYYADSVKGRFTISRDNAKNTVYLQMNSLKPEDTAVYYCAAYWYSRYDYDYWGQGTQVTVSS”, the “polyreactivity (PSR sort gate)” value was “low polyreactivity”.
With “QVQLVESWGGLVQAGGSLRLSCAASGSTFGYYAMGWYRRAPGNEMELVAALSSSSSTNYADSVKGRFTISRDNAMNTVYLQMNRLIPEETAVYYCASDPYWLHWTFDYWGQGSQVTVSS” the “polyreactivity (PSR sort gate)” value was “low polyreactivity”.

Reference: the nanobody polyreactivity screen of Harvey et al. (2022)
